Columns and labels:
[1] = target: T1, HIV-1 reverse transcriptase (HIV-1 (BH10), UniProt P03366;P03366 P03366:600-1159,P03366:600-1039); test: inhibition; poly(rA).p(dT)12-18 template; duplicate 4.2 uM; details: intramolecular G4 (G-octet)
[2] = target: T1, HIV-1 reverse transcriptase; test: inhibition; gapped duplex DNA template; duplicate 10.0 uM; details: intramolecular G4 (G-octet)
[3] = target: HIV-1 integrase wild-type (IN1-288) (HIV-1, UniProt P12497 P12497:1148-1435); test: inhibition; 3'-processing; strand transfer 0.046 uM; Table D-1 79 nM / 49 nM; FIG. 30 55 nM; Mn; details: intramolecular G4 (G-octet)
[4] = target: T1, HIV-1 reverse transcriptase; test: inhibition; primed ribosomal RNA template; duplicate 0.36 uM; details: intramolecular G4 (G-octet)
[5] = target: CD4 (UniProt P01730 P01730:26-396); test: competition; ID50, oligo with immobilized CD4; details: tags: immobilized, gp120 capture ELISA kit
[6] = target: T2, gp120 envelope glycoprotein (HIV-1, UniProt P04578 P04578:33-511); test: competition; ID50, inhibition of gp120 binding to CD4, oligo preincubated with gp120; details: tags: gp120 capture ELISA kit
[7] = target: T2, gp120 envelope glycoprotein; test: competition; ID50, gp120/CD4 ELISA; PD oligos did not inhibit V3 Mab binding; details: tags: gp120 capture ELISA kit
[8] = target: HIV-1 integrase wild-type (IN1-288) (HIV-1, UniProt P12497 P12497:1148-1435); test: UV crosslinking, about 39 kDa complex; not competed by excess T30177 added after preincubation; details: label: 5'-32P

## GTGGTGGGTGGGTGGGT (ssDNA, PS at first and last internucleoside linkages, 3'-OH) [T30177 (AR177, Zintevir)]
[1]
  IC50: 11 µM
[2]
  IC50: 8 µM
[3]
  IC50: 0.092 µM
[4]
  IC50: 1.2 µM

## GTTGGGGGTTGTTGGTGGGGTGGTGG (ssDNA, phosphodiester) [I100-00]
[5]
  IC50: 18 µM
[6]
  IC50: 3.5 µM

## GTGGTGGGTGGGTGGGTGGTGGGTGGTGGTTGTGGGTGGGTGGTG (ssDNA, phosphodiester) [I100-07]
[5]
  IC50: 4.25 µM
[7]
  IC50: 0.8 µM

B1: HIV-1 U5 LTR 21-mer duplex (AE118/AE117) (dsDNA)
DNA 1: GTGTGGAAAATCTCTAGCAGT
DNA 2: ACTGCTAGAGATTTTCCACAC
[8]
  binding result: binds

From patent publication US6323185, “Anti-viral guanosine-rich oligonucleotides and method of treating HIV” (The United States of America as represented by the …)
